The supplement of paper PMC10065799, “High-throughput profiling of sequence recognition by tyrosine kinases and SH2 domains using bacterial peptide display” (eLife, 2023)

What was measured:
[1] = system: AncSZ; test: phosphorylation enrichment, bacterial display (enrichment ratio); higher = better substrate or ligand; peptides without Tyr show the background
[2] = biological target: EPHB1 (UniProt P54762); test: as above
[3] = biological target: EPHB2 (UniProt P29323); test: as above
[4] = biological target: FGFR1 (UniProt P11362); test: as above
[5] = biological target: FGFR3 (UniProt P22607); test: as above
[6] = system: Fer (mouse); test: as above
[7] = biological target: Fes (UniProt P07332); test: as above
[8] = biological target: Fyn (UniProt P06241); test: as above
[9] = biological target: Hck (UniProt P08631); test: as above
[10] = biological target: Jak2 (UniProt O60674); test: as above
[11] = biological target: MERTK (UniProt Q12866); test: as above
[12] = system: c-Abl (mouse); test: as above
[13] = system: c-Src; test: as above
[14] = biological target: Grb2 SH2 (UniProt P62993); test: SH2 binding enrichment of the phosphorylated peptide, bacterial display (enrichment ratio); higher = better substrate or ligand; peptides without Tyr show the background
[15] = biological target: SHP2-C SH2; test: as above
[16] = biological target: c-Src SH2; test: as above
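Throughout, for SH2 binding enrichment of the phosphorylated peptide, bacterial display: peptide library displayed on the E. coli surface as eCPX fusions, selected cells deep-sequenced, score is each peptide's frequency after selection divided by its frequency in the input.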
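Throughout, for phosphorylation enrichment, bacterial display: 11-residue human phosphosite peptides and single-mutation variants displayed on the E. coli surface, counted by deep sequencing, each peptide's frequency after selection divided by its frequency in the unselected input library; frequency after pTyr selection over input frequency; kinase dosed for 20-30% of maximal phosphorylation in three min.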

Sequence of Fyn (P06241 whole entry, looked up): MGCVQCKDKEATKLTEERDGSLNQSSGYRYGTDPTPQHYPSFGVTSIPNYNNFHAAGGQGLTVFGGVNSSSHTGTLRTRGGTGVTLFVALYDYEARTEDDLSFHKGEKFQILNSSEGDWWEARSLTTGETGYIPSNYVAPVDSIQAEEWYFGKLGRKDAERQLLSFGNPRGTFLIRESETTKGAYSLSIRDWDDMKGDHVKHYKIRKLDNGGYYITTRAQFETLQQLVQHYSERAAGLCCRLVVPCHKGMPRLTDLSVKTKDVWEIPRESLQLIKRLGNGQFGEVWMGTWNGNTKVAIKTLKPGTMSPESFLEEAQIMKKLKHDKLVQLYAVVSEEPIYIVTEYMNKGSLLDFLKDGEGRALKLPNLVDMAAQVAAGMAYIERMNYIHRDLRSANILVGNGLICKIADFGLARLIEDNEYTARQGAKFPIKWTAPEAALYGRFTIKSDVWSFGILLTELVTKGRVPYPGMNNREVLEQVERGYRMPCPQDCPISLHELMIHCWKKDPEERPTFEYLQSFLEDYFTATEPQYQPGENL
Sequence of EPHB2 (P29323 whole entry, looked up): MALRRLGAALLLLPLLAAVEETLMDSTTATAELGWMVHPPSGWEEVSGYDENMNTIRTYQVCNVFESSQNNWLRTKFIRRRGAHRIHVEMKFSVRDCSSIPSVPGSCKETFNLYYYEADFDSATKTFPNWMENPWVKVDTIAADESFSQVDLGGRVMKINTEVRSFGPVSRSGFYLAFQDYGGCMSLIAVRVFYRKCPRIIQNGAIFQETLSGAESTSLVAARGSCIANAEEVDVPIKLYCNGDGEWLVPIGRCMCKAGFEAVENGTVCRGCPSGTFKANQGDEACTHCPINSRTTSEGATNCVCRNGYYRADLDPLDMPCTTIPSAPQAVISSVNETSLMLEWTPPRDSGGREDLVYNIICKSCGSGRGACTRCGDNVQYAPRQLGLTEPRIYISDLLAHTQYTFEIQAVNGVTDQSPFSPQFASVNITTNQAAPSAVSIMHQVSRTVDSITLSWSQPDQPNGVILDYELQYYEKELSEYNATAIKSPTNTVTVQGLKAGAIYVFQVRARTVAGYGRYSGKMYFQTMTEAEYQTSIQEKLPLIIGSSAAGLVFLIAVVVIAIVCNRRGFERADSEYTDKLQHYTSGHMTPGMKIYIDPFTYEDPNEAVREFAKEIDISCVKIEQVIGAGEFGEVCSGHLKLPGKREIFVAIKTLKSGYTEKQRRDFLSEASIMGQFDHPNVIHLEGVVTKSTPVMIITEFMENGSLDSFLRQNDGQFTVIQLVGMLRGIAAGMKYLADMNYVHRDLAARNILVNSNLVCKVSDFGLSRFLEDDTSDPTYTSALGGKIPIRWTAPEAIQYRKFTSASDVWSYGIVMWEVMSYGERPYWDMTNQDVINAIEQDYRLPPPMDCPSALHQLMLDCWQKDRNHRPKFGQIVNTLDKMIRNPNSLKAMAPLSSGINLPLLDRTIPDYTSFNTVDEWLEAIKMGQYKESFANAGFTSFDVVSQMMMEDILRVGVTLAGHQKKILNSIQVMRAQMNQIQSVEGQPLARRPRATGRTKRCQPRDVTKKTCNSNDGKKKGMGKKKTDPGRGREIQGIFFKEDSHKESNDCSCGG
Sequence of MERTK (Q12866 whole entry, looked up): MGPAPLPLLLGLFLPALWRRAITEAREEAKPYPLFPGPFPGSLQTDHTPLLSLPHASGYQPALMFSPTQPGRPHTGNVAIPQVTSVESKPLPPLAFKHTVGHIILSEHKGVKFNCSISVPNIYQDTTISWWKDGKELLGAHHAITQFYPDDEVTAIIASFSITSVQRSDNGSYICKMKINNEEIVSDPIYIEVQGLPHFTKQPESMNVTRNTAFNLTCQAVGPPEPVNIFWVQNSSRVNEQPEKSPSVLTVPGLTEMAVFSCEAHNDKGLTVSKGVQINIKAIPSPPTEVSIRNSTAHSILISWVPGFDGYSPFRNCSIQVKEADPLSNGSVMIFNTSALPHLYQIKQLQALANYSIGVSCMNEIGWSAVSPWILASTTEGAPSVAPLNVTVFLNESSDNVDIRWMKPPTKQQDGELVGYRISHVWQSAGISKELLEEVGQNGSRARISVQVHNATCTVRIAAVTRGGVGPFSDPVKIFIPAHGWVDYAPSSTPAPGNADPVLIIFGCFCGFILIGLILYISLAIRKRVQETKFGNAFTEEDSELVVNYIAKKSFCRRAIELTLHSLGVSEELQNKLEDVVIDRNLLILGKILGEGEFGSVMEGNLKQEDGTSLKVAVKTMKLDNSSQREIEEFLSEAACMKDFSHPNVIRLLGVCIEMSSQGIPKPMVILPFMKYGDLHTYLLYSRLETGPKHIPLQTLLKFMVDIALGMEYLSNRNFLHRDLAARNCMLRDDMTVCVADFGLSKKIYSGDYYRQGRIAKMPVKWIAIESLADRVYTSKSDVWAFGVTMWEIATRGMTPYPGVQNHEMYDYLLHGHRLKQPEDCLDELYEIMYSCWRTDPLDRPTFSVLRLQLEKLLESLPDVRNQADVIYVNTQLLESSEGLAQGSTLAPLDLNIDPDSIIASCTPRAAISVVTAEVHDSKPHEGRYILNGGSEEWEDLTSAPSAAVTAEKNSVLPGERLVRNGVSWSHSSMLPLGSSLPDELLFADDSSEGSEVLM
Sequence of Jak2 (O60674 whole entry, looked up): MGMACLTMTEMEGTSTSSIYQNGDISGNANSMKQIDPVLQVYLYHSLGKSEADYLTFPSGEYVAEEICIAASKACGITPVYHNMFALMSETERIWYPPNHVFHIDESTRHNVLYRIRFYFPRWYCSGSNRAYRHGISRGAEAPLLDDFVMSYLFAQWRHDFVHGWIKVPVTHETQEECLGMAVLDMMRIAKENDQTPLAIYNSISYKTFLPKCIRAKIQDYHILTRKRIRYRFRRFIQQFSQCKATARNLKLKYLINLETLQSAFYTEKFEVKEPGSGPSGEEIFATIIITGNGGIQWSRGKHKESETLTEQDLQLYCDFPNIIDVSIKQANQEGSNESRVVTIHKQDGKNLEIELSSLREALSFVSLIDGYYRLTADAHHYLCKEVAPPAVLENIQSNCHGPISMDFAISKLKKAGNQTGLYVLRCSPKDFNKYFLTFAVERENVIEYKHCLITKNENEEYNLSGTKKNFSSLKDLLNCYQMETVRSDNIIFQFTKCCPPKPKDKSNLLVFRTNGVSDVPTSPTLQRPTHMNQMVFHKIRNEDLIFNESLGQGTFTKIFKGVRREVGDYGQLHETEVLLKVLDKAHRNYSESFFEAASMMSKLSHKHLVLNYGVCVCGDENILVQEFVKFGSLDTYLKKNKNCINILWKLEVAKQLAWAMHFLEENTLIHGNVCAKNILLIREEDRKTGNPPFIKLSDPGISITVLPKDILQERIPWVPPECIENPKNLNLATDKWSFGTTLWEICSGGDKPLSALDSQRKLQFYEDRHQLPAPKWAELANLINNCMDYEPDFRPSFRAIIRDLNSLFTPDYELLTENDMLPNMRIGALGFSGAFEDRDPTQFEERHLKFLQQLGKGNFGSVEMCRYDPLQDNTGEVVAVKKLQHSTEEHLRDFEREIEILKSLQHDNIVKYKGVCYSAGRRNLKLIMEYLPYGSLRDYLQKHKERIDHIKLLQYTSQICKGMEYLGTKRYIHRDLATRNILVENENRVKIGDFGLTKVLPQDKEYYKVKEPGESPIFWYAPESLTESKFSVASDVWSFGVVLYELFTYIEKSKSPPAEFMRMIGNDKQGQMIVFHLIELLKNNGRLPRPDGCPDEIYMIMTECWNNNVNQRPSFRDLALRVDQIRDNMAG
Sequence of EPHB1 (P54762 whole entry, looked up): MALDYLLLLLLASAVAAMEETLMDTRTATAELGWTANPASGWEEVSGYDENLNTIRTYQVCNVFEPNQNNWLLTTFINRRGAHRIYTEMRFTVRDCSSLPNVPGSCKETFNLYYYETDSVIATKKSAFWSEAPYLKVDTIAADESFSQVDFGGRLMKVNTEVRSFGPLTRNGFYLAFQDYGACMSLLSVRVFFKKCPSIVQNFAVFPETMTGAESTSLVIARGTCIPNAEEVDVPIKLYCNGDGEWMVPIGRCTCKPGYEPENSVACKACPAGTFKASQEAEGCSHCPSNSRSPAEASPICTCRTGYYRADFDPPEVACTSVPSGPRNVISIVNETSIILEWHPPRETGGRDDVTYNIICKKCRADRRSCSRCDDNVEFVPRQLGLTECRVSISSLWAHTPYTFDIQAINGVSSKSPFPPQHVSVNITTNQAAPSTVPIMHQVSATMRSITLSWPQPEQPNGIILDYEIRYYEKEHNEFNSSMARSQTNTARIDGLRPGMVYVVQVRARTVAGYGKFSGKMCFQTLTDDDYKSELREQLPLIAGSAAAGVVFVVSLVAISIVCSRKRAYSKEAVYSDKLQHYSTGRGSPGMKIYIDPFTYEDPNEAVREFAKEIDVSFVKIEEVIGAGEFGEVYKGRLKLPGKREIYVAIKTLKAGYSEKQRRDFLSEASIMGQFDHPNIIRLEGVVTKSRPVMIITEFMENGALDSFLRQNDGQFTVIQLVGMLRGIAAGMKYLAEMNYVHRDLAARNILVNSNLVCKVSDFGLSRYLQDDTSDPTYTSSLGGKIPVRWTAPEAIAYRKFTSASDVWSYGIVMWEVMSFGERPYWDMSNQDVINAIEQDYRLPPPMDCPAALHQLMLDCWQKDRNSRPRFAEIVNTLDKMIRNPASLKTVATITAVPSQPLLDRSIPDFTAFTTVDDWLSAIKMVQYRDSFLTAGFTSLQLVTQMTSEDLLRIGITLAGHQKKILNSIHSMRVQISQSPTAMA
Sequence of Grb2 SH2 (P62993 whole entry, looked up): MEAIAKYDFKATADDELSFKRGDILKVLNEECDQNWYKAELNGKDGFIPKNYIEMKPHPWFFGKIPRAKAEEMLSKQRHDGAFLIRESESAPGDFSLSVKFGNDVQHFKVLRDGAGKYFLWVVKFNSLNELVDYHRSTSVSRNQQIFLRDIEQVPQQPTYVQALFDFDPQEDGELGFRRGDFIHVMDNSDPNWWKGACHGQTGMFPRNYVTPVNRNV

| Sequence | phosphorylation enrichment [1] | phosphorylation enrichment [2] | phosphorylation enrichment [3] | phosphorylation enrichment [4] | phosphorylation enrichment [5] | phosphorylation enrichment [6] | phosphorylation enrichment [7] | phosphorylation enrichment [8] | phosphorylation enrichment [9] | phosphorylation enrichment [10] | phosphorylation enrichment [11] | phosphorylation enrichment [12] | phosphorylation enrichment [13] | SH2 binding enrichment [14] | SH2 binding enrichment [15] | SH2 binding enrichment [16] |
| --- | --- | --- | --- | --- | --- | --- | --- | --- | --- | --- | --- | --- | --- | --- | --- | --- |
| RVEDACILTCN [CCT6A_Y229_Y229C] | 0.994 | 0.622 | 0.688 | 0.708 | 0.968 | 0.571 | 1.12 | 0.551 | 0.751 | 1.18 | 0.683 | 0.86 | 0.727 | 0.85 | 0.738 | 0.657 |
| RVILRYVNPGN [LAMA3_Y791_T796N] | 1.47 | 0.836 | 0.711 | 0.614 | 1.12 | 0.609 | 2.02 | 0.617 | 0.775 | 1.79 | 0.709 | 1.61 | 0.75 | 1.17 | 0.873 | 0.944 |
| RVLKLYGCSPS [ASTL_Y279] | 1.03 | 0.634 | 0.761 | 0.367 | 0.608 | 0.981 | 0.943 | 0.728 | 0.564 | 0.983 | 0.461 | 0.719 | 0.516 | 0.895 | 0.93 | 0.566 |
| SARVRYLMAEK [LDHB_Y173_F171V] | 0.579 | 0.46 | 0.521 | 0.482 | 0.532 | 0.439 | 0.756 | 0.43 | 0.423 | 0.39 | 0.417 | 0.472 | 0.38 | 0.925 | 0.755 | 0.862 |
| SDFFAYSPVQE [H6PD_Y449_R453Q_YF] | 1.44 | 0.783 | 0.686 | 0.577 | 0.807 | 1.13 | 1.32 | 0.489 | 0.647 | 1.36 | 0.645 | 0.922 | 0.611 | 0.704 | 0.639 | 1.83 |
| SDMGQYQCLVF [AXL_Y115_T112M] | 1.3 | 0.923 | 0.991 | 2.05 | 1.89 | 3.38 | 1.22 | 2.35 | 3.14 | 0.933 | 1.84 | 1.57 | 1.97 | 0.726 | 0.916 | 0.437 |
| SDVLSYGVTMW [ZAP70_Y525_W523L] | 0.922 | 0.626 | 0.604 | 0.493 | 0.642 | 0.523 | 1.03 | 0.449 | 0.475 | 1.04 | 0.342 | 0.645 | 0.531 | 0.837 | 0.699 | 0.474 |
| SDYYAYSPVRE [H6PD_Y449] | 6.22 | 17.5 | 23.7 | 16.3 | 14.8 | 12.9 | 0.832 | 9.64 | 8.79 | 11.2 | 10.7 | 12.9 | 7.18 | 1.06 | 1.48 | 1.13 |
| SENPKYPEVGD [TMEM43_Y233] | 1.01 | 0.459 | 0.561 | 0.6 | 0.734 | 0.424 | 1.2 | 0.616 | 0.536 | 0.891 | 0.522 | 0.822 | 0.584 | 1.27 | 0.594 | 0.482 |
| SFLFHYADDSF [RAB3C_Y50_R49H] | 0.905 | 0.498 | 0.549 | 0.438 | 0.671 | 0.465 | 1.12 | 0.476 | 0.399 | 0.958 | 0.412 | 0.718 | 0.466 | 1.09 | 1.08 | 1.55 |
| SFLSFYTSHVQ [NEFL_Y443_P440L_YF] | 1.21 | 0.758 | 0.697 | 0.531 | 0.682 | 0.503 | 1.3 | 0.421 | 0.428 | 1.1 | 0.533 | 0.693 | 0.462 | 1.41 | 1.23 | 1.25 |
| SGAWSYNTSTE [SELE_Y24] | 0.788 | 0.458 | 0.502 | 0.52 | 0.621 | 0.382 | 0.748 | 0.499 | 0.379 | 0.881 | 0.447 | 0.55 | 0.378 | 0.802 | 0.886 | 0.536 |
| SGIFQYIIAKF [FOXL2_Y83_YF] | 1.14 | 0.602 | 0.564 | 0.639 | 0.704 | 0.503 | 1.13 | 0.496 | 0.546 | 1.07 | 0.518 | 0.84 | 0.561 | 1.35 | 1.27 | 0.763 |
| SGSIHYSHVPR [GLB1_Y57_R59H] | 0.681 | 0.426 | 0.451 | 0.451 | 0.518 | 0.606 | 0.79 | 0.35 | 0.451 | 0.6 | 0.425 | 0.658 | 0.383 | 0.745 | 1.55 | 0.593 |
| SHISGYAALRR [RAPH1_Y1226_T1228A] | 0.836 | 0.328 | 0.476 | 0.361 | 0.554 | 0.432 | 1.04 | 0.494 | 0.431 | 0.561 | 0.446 | 0.726 | 0.44 | 0.56 | 0.51 | 0.318 |
| SHLSSYTTHPQ [NIPBL_Y195_P192L] | 0.569 | 0.389 | 0.393 | 0.435 | 0.591 | 0.392 | 0.726 | 0.451 | 0.44 | 0.663 | 0.399 | 0.534 | 0.419 | 0.714 | 0.575 | 0.482 |
| SHMVNYQPYRK [TEX37_Y25_D24N] | 0.528 | 0.317 | 0.332 | 0.394 | 0.353 | 0.293 | 0.49 | 0.375 | 0.396 | 0.385 | 0.351 | 0.368 | 0.401 | 0.686 | 0.924 | 0.472 |
